This note sets out measurements from patent publication US20250163117A1 (CURE GENETICS, published 2025).

Positions count from the first letter of the chain named.

T1: human intermediate-affinity IL-2 receptor IL-2Rβγ on cells (human, UniProt P14784 27-551; P31785 23-369)
T1 sequence (looked up) 1: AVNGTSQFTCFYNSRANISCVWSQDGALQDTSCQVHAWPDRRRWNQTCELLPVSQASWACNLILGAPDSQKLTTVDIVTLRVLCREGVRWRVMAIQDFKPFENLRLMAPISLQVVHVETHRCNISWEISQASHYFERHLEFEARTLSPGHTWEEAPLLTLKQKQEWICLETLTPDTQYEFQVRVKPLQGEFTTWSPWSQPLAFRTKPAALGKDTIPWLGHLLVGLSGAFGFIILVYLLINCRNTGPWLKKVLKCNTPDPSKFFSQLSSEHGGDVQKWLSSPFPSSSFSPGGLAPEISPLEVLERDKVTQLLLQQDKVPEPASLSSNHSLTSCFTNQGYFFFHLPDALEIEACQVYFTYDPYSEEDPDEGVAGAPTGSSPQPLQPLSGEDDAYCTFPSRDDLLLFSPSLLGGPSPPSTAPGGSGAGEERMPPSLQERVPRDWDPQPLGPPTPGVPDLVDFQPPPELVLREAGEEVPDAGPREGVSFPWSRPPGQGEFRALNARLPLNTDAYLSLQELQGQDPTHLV
T1 sequence (looked up) 2: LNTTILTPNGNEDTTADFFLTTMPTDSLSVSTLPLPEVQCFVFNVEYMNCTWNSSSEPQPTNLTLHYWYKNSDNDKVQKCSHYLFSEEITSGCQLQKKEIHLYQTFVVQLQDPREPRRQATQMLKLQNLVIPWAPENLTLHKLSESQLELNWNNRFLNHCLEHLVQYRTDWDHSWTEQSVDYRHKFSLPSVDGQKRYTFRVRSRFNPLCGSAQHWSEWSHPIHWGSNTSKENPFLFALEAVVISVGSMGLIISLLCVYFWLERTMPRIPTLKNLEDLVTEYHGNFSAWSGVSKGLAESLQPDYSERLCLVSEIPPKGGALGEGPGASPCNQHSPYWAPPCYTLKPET

T2: human high-affinity IL-2 receptor IL-2Rαβγ on cells (human, UniProt P01589 22-272; P14784 27-551; P31785 23-369)
T2 sequence (looked up) 1: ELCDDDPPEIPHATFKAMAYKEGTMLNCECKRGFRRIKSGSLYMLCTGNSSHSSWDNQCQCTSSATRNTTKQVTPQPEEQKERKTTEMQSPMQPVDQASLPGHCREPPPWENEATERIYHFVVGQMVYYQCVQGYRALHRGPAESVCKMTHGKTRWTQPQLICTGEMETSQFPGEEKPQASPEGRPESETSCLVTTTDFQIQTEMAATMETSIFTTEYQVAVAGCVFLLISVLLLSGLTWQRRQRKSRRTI
T2 sequence (looked up) 2: T1 sequence (looked up) 1
T2 sequence (looked up) 3: T1 sequence (looked up) 2

T3: mouse intermediate-affinity IL-2 receptor IL-2Rβγ on cells (mouse, UniProt P16297 27-539; P34902 23-369)
T3 sequence (looked up) 1: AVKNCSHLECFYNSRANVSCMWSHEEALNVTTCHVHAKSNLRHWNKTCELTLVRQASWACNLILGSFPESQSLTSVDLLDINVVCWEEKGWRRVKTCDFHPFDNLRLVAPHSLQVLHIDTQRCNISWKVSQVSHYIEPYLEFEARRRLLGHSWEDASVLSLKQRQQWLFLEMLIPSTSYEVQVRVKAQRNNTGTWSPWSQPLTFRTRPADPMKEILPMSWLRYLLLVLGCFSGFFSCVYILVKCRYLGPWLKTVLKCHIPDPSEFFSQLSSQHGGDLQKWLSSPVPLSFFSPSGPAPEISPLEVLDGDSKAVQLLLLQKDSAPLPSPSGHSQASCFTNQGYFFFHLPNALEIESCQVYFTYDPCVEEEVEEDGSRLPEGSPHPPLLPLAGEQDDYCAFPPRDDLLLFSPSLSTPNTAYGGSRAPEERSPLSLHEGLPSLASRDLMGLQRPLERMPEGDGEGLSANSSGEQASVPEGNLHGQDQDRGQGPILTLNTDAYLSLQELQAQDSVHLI
T3 sequence (looked up) 2: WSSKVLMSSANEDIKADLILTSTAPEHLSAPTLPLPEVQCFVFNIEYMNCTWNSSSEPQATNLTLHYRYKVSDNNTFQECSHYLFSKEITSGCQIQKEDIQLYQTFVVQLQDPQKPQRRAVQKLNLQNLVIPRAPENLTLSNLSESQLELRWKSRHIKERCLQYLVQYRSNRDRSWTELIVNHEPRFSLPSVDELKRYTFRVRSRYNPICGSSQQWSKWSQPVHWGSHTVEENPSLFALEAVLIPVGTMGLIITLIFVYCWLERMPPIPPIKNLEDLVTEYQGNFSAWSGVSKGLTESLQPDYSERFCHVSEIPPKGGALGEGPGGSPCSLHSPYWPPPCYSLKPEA

T4: mouse high-affinity IL-2 receptor IL-2Rαβγ on cells (mouse, UniProt P01590 22-268; P16297 27-539; P34902 23-369)
T4 sequence (looked up) 1: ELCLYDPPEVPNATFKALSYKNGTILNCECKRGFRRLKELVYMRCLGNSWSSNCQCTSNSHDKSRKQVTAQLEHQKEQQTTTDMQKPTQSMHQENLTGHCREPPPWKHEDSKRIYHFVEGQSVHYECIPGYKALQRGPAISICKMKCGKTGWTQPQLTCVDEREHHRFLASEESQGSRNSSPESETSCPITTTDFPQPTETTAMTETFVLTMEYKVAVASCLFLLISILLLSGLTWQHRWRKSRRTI
T4 sequence (looked up) 2: T3 sequence (looked up) 1
T4 sequence (looked up) 3: T3 sequence (looked up) 2

B1: CP-trIL-2 073 (ligand)
chain: ELKHLQSLEEELKDLEEVLNLAQSKNFHLRPRDLISNINVIVLELKGSETTPTSSSTKKTQLQLEHLLLDLQMILNGINNYKNPTIVEKLNRWITKSQSIISTLT
B2: CP-trIL-2 032 (ligand)
chain: ELKHLQSLEEELKDLEEVLNLAQSKNFHTIVEFLNRWITFSQSIISTLTGGGGSGGGGSPTSSSTKKTQLQLEHLLLDLQMILNGINNYKNPLRPRDLISNINVIVLELKG
B3: CP-trIL-2 022 (ligand)
chain: LRPRDLISNINVIVLELKGSETTELKHLQSLEEELKDLEEVLNLAQSKNFHTIVEFLNRWITFSQSIISTLTGGGGSGGGGSPTSSSTKKTQLQLEHLLLDLQMILNGIN
B4: CP-trIL-2 062 (ligand)
chain: TIVEFLNRWITFSQSIISTLTGGGGSGGGGSELKHLQSLEEELKDLEEVLNLAQSKNFHLRPRDLISNINVIVLELKGSETTPTSSSTKKTQLQLEHLLLDLQMILNGIN
B5: CP-trIL-2 042 (ligand)
chain: TIVEFLNRWITFSQSIISTLTGGGGSGGGGSPTSSSTKKTQLQLEHLLLDLQMILNGINNYKNPLRPRDLISNINVIVLELKGSETTELKHLQSLEEELKDLEEVLN
B6: CP-trIL-2 082 (ligand)
chain: LRPRDLISNINVIVLELKGSETTPTSSSTKKTQLQLEHLLLDLQMILNGINNYKNPTIVEFLNRWITFSQSIISTLTGGGGSGGGGSELKHLQSLEEELKDLEEVLN
B7: CP-trIL-2 051 (ligand)
chain: PTSSSTKKTQLQLEHLLLDLQMILNGINNYKNPTIVEFLNRWITFSQSIISTLTGGGGSGGGGSELKHLQSLEEELKPLEEVLNLAQSKNFHLRPRDLISNINVIVLELKG
B8: CP-trIL-2 011 (ligand)
chain: PTSSSTKKTQLQLEHLLLDLQMILNGINNYKNPLRPRDLISNINVIVLELKGSETTELKHLQSLEEELKPLEEVLNLAQSKNFHTIVEFLNRWITFSQSIISTLT
B9: CP-trIL-2 021 (ligand)
chain: B3 chain with D37P

In the first experiment the target is T1, human intermediate-affinity IL-2 …. The experiment is described as follows: cell-based or functional assay.
Consider B1, for which the “EC50 (read off the curve): STAT5 phosphorylation in HH cells” value (“EC50 (read off the curve)” for short) was about 0.01 µM.

The target in another experiment is T2, human high-affinity IL-2 receptor …. The experiment is described as follows: cell-based or functional assay.
Regarding B2, the “% pSTAT5 in human PBMC at Low IL-2v concentration (2.5 nM per paragraph 254); western blot, pSTAT5/STAT5 normalised to 001 High” value was 10.4%.
B3: the “% pSTAT5 in human PBMC at Low IL-2v concentration (2.5 nM per paragraph 254); western blot, pSTAT5/STAT5 normalised to 001 High” value is 9.1%.
In the case of B4, the “% pSTAT5 in human PBMC at Low IL-2v concentration (2.5 nM per paragraph 254); western blot, pSTAT5/STAT5 normalised to 001 High” value was 10.7%.
With B5, the “% pSTAT5 in human PBMC at Low IL-2v concentration (2.5 nM per paragraph 254); western blot, pSTAT5/STAT5 normalised to 001 High” value stood at 6.2%.
The same measure, in the same setting: in the case of B6 it was 15.6%; in that of B7, 9.5%.

Another experiment has as its target T1, human intermediate-affinity IL-2 …. The experiment is described as follows: cell-based or functional assay. This is another data set of the same source.
With B2, the “% pSTAT5 in human PBMC at High IL-2v concentration (25 nM per paragraph 254); western blot, pSTAT5/STAT5 normalised to 001 High” value is 7.6%.
Consider B3, for which the “% pSTAT5 in human PBMC at High IL-2v concentration (25 nM per paragraph 254); western blot, pSTAT5/STAT5 normalised to 001 High” value worked out at 38.1%.
Still for that read-out and setting: in the case of B4 it was 12.1%.
B5: the “% pSTAT5 in human PBMC at High IL-2v concentration (25 nM per paragraph 254); western blot, pSTAT5/STAT5 normalised to 001 High” value turned out to be 9.3%.
B6: the “% pSTAT5 in human PBMC at High IL-2v concentration (25 nM per paragraph 254); western blot, pSTAT5/STAT5 normalised to 001 High” value was 45.8%.
On to B7, for which the “% pSTAT5 in human PBMC at High IL-2v concentration (25 nM per paragraph 254); western blot, pSTAT5/STAT5 normalised to 001 High” value is 18.2%.

In another experiment the target is T3, mouse intermediate-affinity IL-2 …. The experiment is described as follows: cell-based or functional assay.
In the case of B2, the “% pSTAT5 in mouse splenocytes at High IL-2v concentration (25 nM per paragraph 254); western blot, pSTAT5/STAT5 normalised to 001 High” value was 18.9%.
Still for that read-out and setting: for B3 the value was 68.5%; for B4, 20.5%.
In the case of B5, the “% pSTAT5 in mouse splenocytes at High IL-2v concentration (25 nM per paragraph 254); western blot, pSTAT5/STAT5 normalised to 001 High” value was 16.1%.
As to B6, the “% pSTAT5 in mouse splenocytes at High IL-2v concentration (25 nM per paragraph 254); western blot, pSTAT5/STAT5 normalised to 001 High” value was found to be 25.2%.
Regarding B7, the “% pSTAT5 in mouse splenocytes at High IL-2v concentration (25 nM per paragraph 254); western blot, pSTAT5/STAT5 normalised to 001 High” value was determined as 21.8%.

Another experiment concerns the target T4, mouse high-affinity IL-2 receptor …. The experiment is described as follows: cell-based or functional assay.
B2: the “% pSTAT5 in mouse splenocytes at Low IL-2v concentration (2.5 nM per paragraph 254); western blot, pSTAT5/STAT5 normalised to 001 High” value amounted to 11.5%.
For B3, the “% pSTAT5 in mouse splenocytes at Low IL-2v concentration (2.5 nM per paragraph 254); western blot, pSTAT5/STAT5 normalised to 001 High” value turned out to be 24.8%.
Consider B4, for which the “% pSTAT5 in mouse splenocytes at Low IL-2v concentration (2.5 nM per paragraph 254); western blot, pSTAT5/STAT5 normalised to 001 High” value was 13.8%.
Turning to B5, the “% pSTAT5 in mouse splenocytes at Low IL-2v concentration (2.5 nM per paragraph 254); western blot, pSTAT5/STAT5 normalised to 001 High” value came to 13.9%.
Turning to B6, the “% pSTAT5 in mouse splenocytes at Low IL-2v concentration (2.5 nM per paragraph 254); western blot, pSTAT5/STAT5 normalised to 001 High” value was 16.7%.
Consider B7, for which the “% pSTAT5 in mouse splenocytes at Low IL-2v concentration (2.5 nM per paragraph 254); western blot, pSTAT5/STAT5 normalised to 001 High” value was 14.6%.

The target of a further experiment is T1, human intermediate-affinity IL-2 …. The experiment is described as follows: cell-based or functional assay. The source holds these as a separate data set.
With B8, the “EC50 (read off the curve)” value is about 0.006 µM.
Take B9: the “EC50 (read off the curve)” value is about 0.03 µM.
With B3, the “EC50 (read off the curve)” value is about 0.02 µM.
